One molecule from patent US20110129459A1 (Chugai, published 2011) can be followed below.

In assay [1] the target is T1, mhh (human/mouse chimeric NR10 extracellular domain, His/Myc tagged) (human/mouse chimera).
T1 construct: C-terminal His-Myc tag
T1 chain: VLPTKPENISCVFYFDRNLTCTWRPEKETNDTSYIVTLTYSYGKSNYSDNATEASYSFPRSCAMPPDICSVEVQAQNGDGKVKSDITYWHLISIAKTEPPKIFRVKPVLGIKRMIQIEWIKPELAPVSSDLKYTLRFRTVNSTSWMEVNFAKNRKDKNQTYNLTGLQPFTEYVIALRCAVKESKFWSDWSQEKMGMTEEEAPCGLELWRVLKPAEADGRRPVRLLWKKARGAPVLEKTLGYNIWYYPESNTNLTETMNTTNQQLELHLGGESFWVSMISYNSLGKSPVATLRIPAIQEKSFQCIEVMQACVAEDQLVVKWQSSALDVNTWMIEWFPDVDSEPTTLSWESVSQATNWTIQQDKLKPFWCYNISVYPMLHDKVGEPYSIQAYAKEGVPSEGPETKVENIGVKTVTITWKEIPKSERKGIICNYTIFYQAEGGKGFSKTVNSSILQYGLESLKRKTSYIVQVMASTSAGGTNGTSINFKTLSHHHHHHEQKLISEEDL
Nature of the assay: Western blot of purified His/Myc-tagged NR10-ECD probed with H44M58L17, detected with AP-labeled goat anti-human IgG. As for the experimental part:
(§1) Each of the prepared human/mouse wild-type and chimeric antigens was electrophoresed at 0.5 μg/lane on three 4-20% polyacrylamide gels (Daiichi Pure Chemicals Co.). The proteins were electro-transferred onto PVDF membranes (Millipore) in a semi-dry blotting apparatus, and the membranes were blocked with TBS containing 5% skim milk. One membrane was incubated with 5 μg/ml of H44M58L17 (detection system for humanized anti-human NR10 antibody); another with 5 μg/ml of ND41 (detection system for mouse anti-human NR10 antibody); and the other one with anti-Myc antibody (SantaCruz, Cat.#sc-789) 500-times diluted with TBS containing 5% skim milk (detection system for Myc tag) at room temperature for one hour.
(§2) After washing three times with TBS containing 0.05% Tween™ 20, the secondary antibodies were incubated with the membranes. Alkaline phosphatase-labeled goat anti-human IgGγ (BIOSOURCE, Cat. #AHI0305) was used to detect humanized anti-human NR10 antibody; alkaline phosphatase-labeled goat anti-mouse IgG (SantaCruz, Cat. #sc-2008) was used to detect mouse anti-human NR10 antibody; and alkaline phosphatase-labeled goat anti-rabbit IgG (SantaCruz, Cat. #sc-2057) was used to detect Myc tag. The reaction was carried out at room temperature for one hour. […]
(Immunoblotting shows a protein as a band on a membrane.)

Assay [2] concerns the target T2, mmh (human/mouse chimeric NR10 extracellular domain, His/Myc tagged) (human/mouse chimera).
T2 construct: C-terminal His-Myc tag
T2 chain: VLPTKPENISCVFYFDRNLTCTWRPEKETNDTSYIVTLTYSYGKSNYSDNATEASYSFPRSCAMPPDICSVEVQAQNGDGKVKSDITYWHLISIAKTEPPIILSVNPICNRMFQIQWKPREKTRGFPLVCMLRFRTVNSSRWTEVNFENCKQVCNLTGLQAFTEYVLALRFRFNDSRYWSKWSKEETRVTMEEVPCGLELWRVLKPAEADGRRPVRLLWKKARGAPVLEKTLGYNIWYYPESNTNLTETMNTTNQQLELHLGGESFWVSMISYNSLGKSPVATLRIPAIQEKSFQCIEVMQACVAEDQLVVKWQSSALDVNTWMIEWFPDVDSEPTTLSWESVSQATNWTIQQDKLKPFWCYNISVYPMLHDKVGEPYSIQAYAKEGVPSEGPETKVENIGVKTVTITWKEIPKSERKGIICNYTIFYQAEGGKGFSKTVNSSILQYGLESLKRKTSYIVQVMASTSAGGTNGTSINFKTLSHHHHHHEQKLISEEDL
Nature of the assay: Western blotting, 0.5 µg antigen per lane. The protocol: as §1, §2

The target of assay [3] is T3, rhNR10 (recombinant human NR10) (human, UniProt Q8NI17 20-519, limits assumed).
T3 construct: also called IL-31 receptor; IL31RA
T3 sequence: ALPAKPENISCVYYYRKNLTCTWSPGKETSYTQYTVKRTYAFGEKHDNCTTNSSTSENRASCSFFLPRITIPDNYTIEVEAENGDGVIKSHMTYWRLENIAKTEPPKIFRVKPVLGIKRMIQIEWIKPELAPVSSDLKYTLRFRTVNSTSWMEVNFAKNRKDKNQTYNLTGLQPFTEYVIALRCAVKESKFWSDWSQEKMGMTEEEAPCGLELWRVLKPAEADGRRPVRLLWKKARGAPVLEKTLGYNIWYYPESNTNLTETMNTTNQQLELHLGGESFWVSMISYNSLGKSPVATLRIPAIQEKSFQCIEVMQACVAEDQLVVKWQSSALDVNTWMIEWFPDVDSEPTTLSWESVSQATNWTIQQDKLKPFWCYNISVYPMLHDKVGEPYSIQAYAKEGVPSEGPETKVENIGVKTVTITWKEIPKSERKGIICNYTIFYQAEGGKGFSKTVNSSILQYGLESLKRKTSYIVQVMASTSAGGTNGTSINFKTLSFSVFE
The assay can be described thus: SPR, Biacore T100; antibody captured on Protein A, rhNR10 as analyte. As for the experimental part: Kinetic analysis of the antigen-antibody reaction was carried out using Biacore T100 (GE Healthcare Biosciences). The antigen-antibody interaction was measured by immobilizing rec-Protein A (hereinafter Protein A) (ZYMED) onto a sensor chip, capturing an antibody on the immobilized Protein A, and then reacting the antigen as an analyte. Various concentrations of rhNR10 were used as the antigen. The kinetic parameters, association rate constant kₐ (1/Ms) and dissociation rate constant kd (1/s), were calculated from the sensorgrams obtained by the measurement. Then, KD (M) was determined based on the rate constants. Each parameter was determined using Biacore T100 Evaluation Software version 1.1 (GE Healthcare Biosciences).
The running buffer used was HBS-EP+. Each antibody was prepared at 0.25 μg/ml, or prepared so that about 100 RU would bind to Protein A. rhNR10 used as an analyte was prepared at 0, 38.5, 77.0, and 154 nM, or at 0, 19.25, and 77.01 nM using HBS-EP+. In the measurement, first, the antibody solution was captured on Protein A, and an analyte solution was reacted at a flow rate of 20 μL/min for three minutes. Then, the solution was switched to HBS-EP+, and the dissociation phase was measured for five minutes. After measurement of the dissociation phase, the sensor chip was regenerated by washing with 10 mM glycine-HCl (pH 1.5). The obtained sensorgrams were kinetically analyzed using the Biacore-specific data analysis software, Biacore T100 Evaluation Software Version 1.1.
Background: In SPR one partner is held on a chip, and binding of the other changes the refractive index at the surface.

B1: H44L17 (H44-M58 / L17) (antibody, V domains shown)
VH: QVQLVQSGAEVKKPGASVKVSCKASGYTFTGYIMNWVRQAPGQGLEWMGLINPYNGGTDYNPQFQDRVTITADKSTSTAYMELSSLRSEDTAVYYCARDGYDDGPYTLETWGQGTLVTVSS
VL: DIQMTQSPSSLSASVGDRVTITCQASEDIYSFVAWYQQKPGKAPKLLIYNAQTEAQGVPSRFSGSGSGTDFTLTISSLQPEDFATYYCQHHYDSPLTFGGGTKVEIKR
notes: also called humanized anti-human NR10 antibody
For the molecule B1, in assay [1], the binding result is on record as “no binding”. The binding result in assay [2] is “no binding (tested: 5 µg/ml)”. Besides, in assay [3], the Kd turned out to be 1.2 nM, the off-rate (koff) is 0.00072 s⁻¹ and the on-rate (kon) was determined as 610000 M⁻¹ s⁻¹.

Usually Kd stands for the concentration at which binding is half-saturated. By koff is commonly meant a measure of how fast the partners let go of each other. A word on the kon: it is the rate constant with which the complex forms.
